B1: bLf C-lobe (aa 285-689) (protein)
chain: SFQLFGSPPGQRDLLFKDSALGFLRIPSKVDSALYLGSRYLTTLKNLRETAEEVKARYTRVVWCAVGPEEQKKCQQWSQQSGQNVTCATASTTDDCIVLVLKGEADALNLDGGYIYTAGKCGLVPVLAENRKSSKHSSLDCVLRPTEGYLAVAVVKKANEGLTWNSLKDKKSCHTAVDRTAGWNIPMGLIVNQTGSCAFDEFFSQSCAPGADPKSRLCALCAGDDQGLDKCVPNSKEKYYGYTGAFRCLAEDVGDVAFVKNDTVWENTNGESTADWAKNLNREDFRLLCLDGTRKPVTEAQSCHLAVAPNHAVVSRSDRAAHVKQVLLHQQALFGKNGKNCPDKFCLFKSETKNLLFNDNTECLAKLGGRPTYEEYLGTEYVTAIANLKKCSTSPLLEACAFLTR
B2: bLf C-lobe (aa 345-689) (protein)
chain: VVWCAVGPEEQKKCQQWSQQSGQNVTCATASTTDDCIVLVLKGEADALNLDGGYIYTAGKCGLVPVLAENRKSSKHSSLDCVLRPTEGYLAVAVVKKANEGLTWNSLKDKKSCHTAVDRTAGWNIPMGLIVNQTGSCAFDEFFSQSCAPGADPKSRLCALCAGDDQGLDKCVPNSKEKYYGYTGAFRCLAEDVGDVAFVKNDTVWENTNGESTADWAKNLNREDFRLLCLDGTRKPVTEAQSCHLAVAPNHAVVSRSDRAAHVKQVLLHQQALFGKNGKNCPDKFCLFKSETKNLLFNDNTECLAKLGGRPTYEEYLGTEYVTAIANLKKCSTSPLLEACAFLTR

How the values were obtained:
Assay in all cases: cell-based or functional assay
[1] = target: Hemagglutinin (HA) of Influenza A virus A/Turkey/Italy/2676/99 H7N1 (Influenza A virus A/Turkey/Italy/2676/99 H7N1)
[2] = target: Hemagglutinin (HA) of Influenza A virus A/Parma/5/06 (Wisconsin-like) H3N2 (Influenza A virus A/Parma/05/06 H3N2)
[3] = target: Hemagglutinin (HA) of Influenza A virus A/Roma-ISS/2/08 (Brisbane-like) (oseltamivir-sensitive) H1N1 (Influenza A virus A/RomaISS/2/08 H1N1)
[4] = target: Hemagglutinin (HA) of Influenza A virus A/Puerto Rico/8/34 H1N1 (PR8 virus) (Influenza A virus A/Puerto Rico/8/34 H1N1) (UniProt P03452)

| Binder | activity on viral hemagglutination (HI) [1] | activity on viral hemagglutination (HI) [2] | activity on viral hemagglutination (HI) [3] | activity on viral hemagglutination (HI) [4] |
| --- | --- | --- | --- | --- |
| B1 | 93.1 fM | 6 nM | 10 nM | 24 nM |
| B2 | 93.1 fM | 6 nM | 10 nM | 12 nM |
